Experimental data taken from the supplement of paper PMC10724198.
± gives the standard deviation of the averaged measurements.

Legend:
Saccharomyces cerevisiae [1] = assay: protein stability index of tFT-peptide fusion (C-terminal peptide) (PSI (0-1 scale)); higher = more stable (slower turnover)
Experimental: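 MPS profiling in S. cerevisiae of the tFT-X12 degron library: putative degron peptides plus stable controls, 12 aa, fused to the C-terminus of a sfGFP-mCherry timer. Cells are FACS-sorted into 8 mCherry/sfGFP bins and deep-sequenced. PSI runs from 0 (unstable) to 1 (stable). Backgrounds are wild type, das1Δ and doa10Δ at 30 °C, and wild type, das1Δ, cdc34-1 and cdc53-1 at 37 °C; 2-3 technical replicates each.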

Saccharomyces cerevisiae [2] = assay: as above; conditions: genetic background: wild type; temperature: 30 C
[3] = genetic background: cdc34-1, temperature: 37 C
[4] = genetic background: cdc53-1, temperature: 37 C
[5] = genetic background: das1 deletion, temperature: 30 C
[6] = genetic background: das1 deletion, temperature: 37 C
[7] = genetic background: doa10 deletion, temperature: 30 C
[8] = genetic background: wild type, temperature: 30 C
[9] = genetic background: wild type, temperature: 37 C
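Note: PSI is a weighted mean of sequencing reads over stability bins, variants kept only with over 10 reads, mCherry proximal and sfGFP distal, peptide attached via GGGS linker.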

Row | Sequence | protein stability index (Saccharomyces cerevisiae [1]; [3]) | protein stability index (Saccharomyces cerevisiae [1]; [4]) | protein stability index (Saccharomyces cerevisiae [1]; [5]) | protein stability index (Saccharomyces cerevisiae [1]; [6]) | protein stability index (Saccharomyces cerevisiae [1]; [7]) | protein stability index (Saccharomyces cerevisiae [1]; [8]) | protein stability index (Saccharomyces cerevisiae [1]; [9]) | protein stability index (Saccharomyces cerevisiae [2])
1 | CNIYVLIIIKKY | 0.1831 ± 0.00032 | 0.298 ± 0.036 | 0.192 ± 0.026 | 0.344 ± 0.076 | 0.157 ± 0.0082 | 0.164 ± 0.039 | 0.325 ± 0.049 | 0.266 ± 0.1
2 | CPPPCPLYMLLC | 0.506 ± 0.03 | 0.614 ± 0.041 | 0.536 ± 0.03 | 0.6121 ± 0.0031 | 0.163 ± 0.017 | 0.17 ± 0.024 | 0.171 ± 0.013 | 0.264 ± 0.025
3 | CRLLYYIPCGLF | 0.656 ± 0.02 | 0.703 ± 0.026 | 0.534 ± 0.029 | 0.701 ± 0.035 | 0.359 ± 0.022 | 0.403 ± 0.014 | 0.5973 ± 0.00064 | 0.49841 ± 0.00044
4 | CRRLCGWLFVCV | 0.466 ± 0.024 | 0.522 ± 0.025 | 0.387 ± 0.037 | 0.548 ± 0.014 | 0.396 ± 0.0074 | 0.38 ± 0.025 | 0.513 ± 0.036 | 0.46 ± 0.0068
5 | CSFELSVCLMLR | 0.063 ± 0.0088 | 0.07758 ± 0.00064 | 0.133 ± 0.013 | 0.198 ± 0.016 | 0.557 ± 0.015 | 0.107 ± 0.007 | 0.1855 ± 0.0013 | 0.188 ± 0.032
6 | CSLRLCVRGAIV | 0.667 ± 0.022 | 0.702 ± 0.021 | 0.602 ± 0.01 | 0.71597 ± 0.00049 | 0.586 ± 0.022 | 0.606 ± 0.0057 | 0.675 ± 0.024 | 0.0268 ± 0.022
7 | CSSSNRRRYFVL | 0.603 ± 0.034 | 0.706 ± 0.027 | 0.66 ± 0.014 | 0.724 ± 0.033 | 0.115 ± 0.022 | 0.131 ± 0.037 | 0.191 ± 0.0041 | 0.187 ± 0.023
8 | CVARWPRPAGSS | 0.699 ± 0.035 | 0.735 ± 0.047 | 0.655 ± 0.015 | 0.729 ± 0.0097 | 0.641 ± 0.017 | 0.673 ± 0.035 | 0.715 ± 0.015 | 0.723 ± 0.026
9 | CVFFPFLGVCYV | 0.4206 ± 0.0039 | 0.43047 ± 8.6e-05 | 0.333 ± 0.025 | 0.473 ± 0.0093 | 0.288 ± 0.01 | 0.336 ± 0.019 | 0.451 ± 0.0089 | 0.425 ± 0.017
10 | CVGRPIALAVRT | 0.52676 ± 0.0004 | 0.519 ± 0.048 | 0.375 ± 0.04 | 0.56 ± 0.0093 | 0.338 ± 0.025 | 0.38 ± 0.028 | 0.51959 ± 0.00012 | 0.511 ± 0.022
11 | CVLLRPGFLVLV | 0.1771 ± 0.0015 | 0.148 ± 0.011 | 0.207 ± 0.021 | 0.278 ± 0.013 | 0.2144 ± 0.0018 | 0.166 ± 0.014 | 0.216 ± 0.016 | 0.234 ± 0.011
12 | CVYGILLLVDVR | 0.0231 ± 0.00051 | 0.0547 ± 0.039 | 0.106 ± 0.032 | 0.128 ± 0.005 | 0.0714 ± 0.034 | 0.0971 ± 0.018 | 0.143 ± 0.066 | 0.189 ± 0.0074
13 | CWDNTLKTMRQM | 0.67 ± 0.0063 | 0.732 ± 0.022 | 0.655 ± 0.042 | 0.7322 ± 0.0059 | 0.307 ± 0.015 | 0.333 ± 0.018 | 0.5969 ± 0.0032 | 0.228 ± 0.1
14 | CWLFCACFVRLV | 0.125 ± 0.014 | 0.154 ± 0.0052 | 0.211 ± 0.019 | 0.333 ± 0.015 | 0.0691 ± 0.0032 | 0.0636 ± 0.0022 | 0.07618 ± 0.00043 | 0.101 ± 0.0076
15 | CYFLFFLSYSLE | 0.237 ± 0.0066 | 0.343 ± 0.045 | 0.231 ± 0.05 | 0.455 ± 0.019 | 0.194 ± 0.039 | 0.226 ± 0.029 | 0.439 ± 0.0046 | 0.297 ± 0.0097
16 | CYTGYMYKLLVG | 0.507 ± 0.054 | 0.547 ± 0.01 | 0.48 ± 0.031 | 0.59019 ± 0.00036 | 0.2458 ± 0.00076 | 0.243 ± 0.027 | 0.423 ± 0.015 | 0.346 ± 0.027
17 | DFHLPWPVALVW | 0.134 ± 0.02 | 0.144 ± 0.016 | 0.217 ± 0.018 | 0.277 ± 0.0039 | 0.188 ± 0.0067 | 0.208 ± 0.026 | 0.24 ± 0.013 | 0.387 ± 0.039
18 | DFIVVIRFIQII | 0.268 ± 0.012 | 0.376 ± 0.009 | 0.266 ± 0.023 | 0.3971 ± 0.0035 | 0.1447 ± 0.001 | 0.154 ± 0.027 | 0.235 ± 0.0043 | 0.232 ± 0.017
19 | DFVYFPPIPVSS | 0.303 ± 0.0088 | 0.352 ± 0.039 | 0.253 ± 0.051 | 0.462 ± 0.011 | 0.218 ± 0.0036 | 0.266 ± 0.032 | 0.409 ± 0.006 | 0.337 ± 0.018
20 | DISWVFVLLIFF | 0.333 ± 0.036 | 0.402 ± 0.012 | 0.3 ± 0.033 | 0.485 ± 0.029 | 0.318 ± 0.023 | 0.279 ± 0.039 | 0.445 ± 0.011 | 0.382 ± 0.026

Row | Sequence | protein stability index (Saccharomyces cerevisiae [1]; [3]) | protein stability index (Saccharomyces cerevisiae [1]; [4]) | protein stability index (Saccharomyces cerevisiae [1]; [5]) | protein stability index (Saccharomyces cerevisiae [1]; [6]) | protein stability index (Saccharomyces cerevisiae [1]; [7]) | protein stability index (Saccharomyces cerevisiae [1]; [8]) | protein stability index (Saccharomyces cerevisiae [1]; [9]) | protein stability index (Saccharomyces cerevisiae [2])
21 | DMWYLLWRVCYI | 0.51263 ± 0.00047 | 0.549 ± 0.056 | 0.43 ± 0.022 | 0.582 ± 0.02 | 0.37 ± 0.02 | 0.409 ± 0.026 | 0.56 ± 0.01 | 0.48 ± 0.028
22 | EGALSGGGKTSG | 0.643 ± 0.045 | 0.719 ± 0.019 | 0.634 ± 0.016 | 0.7181 ± 0.0047 | 0.636 ± 0.014 | 0.631 ± 0.012 | 0.692 ± 0.018 | 0.651 ± 0.24
23 | EKIIVAVLFVVP | 0.354 ± 0.032 | 0.482 ± 0.054 | 0.305 ± 0.02 | 0.504 ± 0.012 | 0.281 ± 0.0051 | 0.302 ± 0.02 | 0.439 ± 0.02 | 0.437 ± 0.043
24 | ENKGGNQKRRKK | 0.686 ± 0.048 | 0.743 ± 0.056 | 0.628 ± 0.056 | 0.736 ± 0.012 | 0.646 ± 0.014 | 0.635 ± 0.021 | 0.698 ± 0.035 | 0.559 ± 0.18
25 | EQMRRYILVSYV | 0.522 ± 0.021 | 0.609 ± 0.025 | 0.427 ± 0.019 | 0.5998 ± 0.0036 | 0.198 ± 0.0082 | 0.243 ± 0.02 | 0.4255 ± 0.0019 | 0.352 ± 0.033
26 | ERFRLYFRPGIF | 0.635 ± 0.036 | 0.7213 ± 0.00075 | 0.653 ± 0.031 | 0.709 ± 0.021 | 0.296 ± 0.03 | 0.332 ± 0.015 | 0.58 ± 0.008 | 0.234 ± 0.091
27 | ESCWVSRVGVCR | 0.685 ± 0.03 | 0.731 ± 0.038 | 0.649 ± 0.062 | 0.7347 ± 0.0049 | 0.588 ± 0.0086 | 0.608 ± 0.01 | 0.687 ± 0.018 | 0.694 ± 0.076
28 | EVTRMLRVVREI | 0.689 ± 0.035 | 0.761 ± 0.032 | 0.631 ± 0.026 | 0.768 ± 0.016 | 0.322 ± 0.0093 | 0.38 ± 0.032 | 0.588 ± 0.02 | 0.456 ± 0.065
29 | EWLITLRKCGVA | 0.606 ± 0.03 | 0.613 ± 0.011 | 0.478 ± 0.026 | 0.6107 ± 0.006 | 0.397 ± 0.0075 | 0.423 ± 0.027 | 0.533 ± 0.006 | 0.463 ± 0.048
30 | EWRPYKRNKQSS | 0.63 ± 0.011 | 0.759 ± 0.053 | 0.638 ± 0.028 | 0.755 ± 0.023 | 0.223 ± 0.016 | 0.211 ± 0.028 | 0.4112 ± 0.0037 | 0.353 ± 0.13
31 | EWVGIFRGVSVF | 0.2846 ± 0.0011 | 0.293 ± 0.0067 | 0.256 ± 0.032 | 0.4158 ± 0.003 | 0.224 ± 0.02 | 0.267 ± 0.022 | 0.374 ± 0.0073 | 0.371 ± 0.0074
32 | FAKRVARVAREH | 0.677 ± 0.052 | 0.725 ± 0.018 | 0.6452 ± 0.0051 | 0.726 ± 0.012 | 0.17 ± 0.024 | 0.219 ± 0.0058 | 0.383 ± 0.014 | 0.33 ± 0.021
33 | FALFLFFGPLIV | 0.435 ± 0.066 | 0.486 ± 0.012 | 0.301 ± 0.056 | 0.52344 ± 0.00026 | 0.335 ± 0.019 | 0.331 ± 0.011 | 0.4857 ± 0.0017 | 0.4287 ± 0.0032
34 | FASFLFFCYIIF | 0.124 ± 0.042 | 0.118 ± 0.0078 | 0.192 ± 0.034 | 0.2631 ± 0.00071 | 0.24 ± 0.022 | 0.154 ± 0.04 | 0.213 ± 0.018 | 0.197 ± 0.0022
35 | FCCFFPFLWRVF | 0.593 ± 0.028 | 0.609 ± 0.034 | 0.541 ± 0.013 | 0.663 ± 0.017 | 0.317 ± 0.009 | 0.322 ± 0.016 | 0.455 ± 0.0052 | 0.378 ± 0.018
36 | FCFYLLFLGFTR | 0.475 ± 0.035 | 0.512 ± 0.042 | 0.364 ± 0.027 | 0.546 ± 0.053 | 0.37 ± 0.01 | 0.324 ± 0.018 | 0.523 ± 0.029 | 0.431 ± 0.011
37 | FCLFFFPSLFFF | 0.57 ± 0.11 | 0.538 ± 0.024 | 0.529 ± 0.042 | 0.604 ± 0.023 | 0.333 ± 0.012 | 0.295 ± 0.026 | 0.443 ± 0.017 | 0.371 ± 0.016
38 | FCRLCYLLLFCC | 0.37 ± 0.044 | 0.414 ± 0.012 | 0.404 ± 0.025 | 0.531 ± 0.022 | 0.211 ± 0.0056 | 0.196 ± 0.016 | 0.20208 ± 0.0002 | 0.254 ± 0.022
39 | FELVWLCIIGAL | 0.415 ± 0.012 | 0.507 ± 0.031 | 0.331 ± 0.031 | 0.516 ± 0.01 | 0.106 ± 0.0082 | 0.122 ± 0.019 | 0.2271 ± 0.0017 | 0.173 ± 0.04
